Assay results reported in the Human Domainome abundance scans (Beltran et al. 2025).
± gives the uncertainty stated by the source.

B1: Tudor domain-containing protein 3, residues 554 to 611; numbered along this chain, Q9H7E2 (parent)
chain: KMWKPGDECFALYWEDNKFYRAEVEALHSSGMTAVVKFIDYGNYEEVLLSNIKPIQTE

Variants of: B1
Test: abundance fitness (aPCA) (normalised: wild type 0, dead -1); higher = more abundant; growth selection in yeast, the domain comes from the species named
Conditions: Homo sapiens

Variant	abundance fitness
E25V	0.013 ± 0.063
E25H	-0.039 ± 0.1
E25P	-0.659 ± 0.11
E25N	-0.111 ± 0.13
E25I	0.011 ± 0.11
E25R	-0.019 ± 0.054
E25S	0.022 ± 0.06
E25W	-0.101 ± 0.074
E25Q	0.077 ± 0.075
E25G	-0.315 ± 0.063
E25M	-0.025 ± 0.078
E25F	-0.041 ± 0.098
E25A	0.062 ± 0.079
E25L	-0.038 ± 0.06
E25Y	0.046 ± 0.12
E25K	0.051 ± 0.1
E25D	0.027 ± 0.14
E25C	-0.019 ± 0.097
A26Y	-0.062 ± 0.21
A26K	0.158 ± 0.17
A26P	-0.897 ± 0.2
A26W	-0.195 ± 0.12
A26T	0.109 ± 0.17
A26G	-0.068 ± 0.086

Variant	abundance fitness
A26N	-0.079 ± 0.16
A26R	0.049 ± 0.083
A26D	-0.165 ± 0.22
A26L	-0.041 ± 0.089
A26H	-0.031 ± 0.21
A26V	-0.128 ± 0.11
A26Q	-0.322 ± 0.2
A26F	0.101 ± 0.21
A26E	0.211 ± 0.17
A26C	-0.063 ± 0.15
A26S	0.106 ± 0.095
A26I	-0.16 ± 0.16
A26M	-0.065 ± 0.14
N17H	-0.29 ± 0.15
N17S	-0.117 ± 0.072
N17G	-0.105 ± 0.059
N17T	-0.366 ± 0.084
N17C	-0.349 ± 0.16
N17E	-0.021 ± 0.08
N17Q	-0.1 ± 0.092
N17V	-0.55 ± 0.074
N17Y	-0.604 ± 0.2
N17W	-0.716 ± 0.13
N17M	-0.191 ± 0.098

Variant	abundance fitness
N17I	-0.742 ± 0.16
N17D	0.034 ± 0.1
N17R	-0.084 ± 0.068
N17F	-0.65 ± 0.23
W14Y	-0.006 ± 0.12
W14F	-0.136 ± 0.084
W14H	0.043 ± 0.15
W14R	0.071 ± 0.056
W14P	0.041 ± 0.11
W14V	-0.012 ± 0.057
W14S	0.134 ± 0.075
W14I	-0.131 ± 0.11
W14A	0.173 ± 0.065
W14D	0.129 ± 0.1
W14T	0.016 ± 0.075
W14G	0.073 ± 0.054
W14C	0.046 ± 0.078
W14K	0.166 ± 0.1
W14L	-0.034 ± 0.062
W14E	0.011 ± 0.077
W14N	0.139 ± 0.1
W14Q	0.169 ± 0.099
W14M	0.066 ± 0.1
Y20M	-0.297 ± 0.097

Variant	abundance fitness
Y20H	0.081 ± 0.12
Y20I	-0.347 ± 0.098
Y20W	-0.305 ± 0.073
Y20G	-0.732 ± 0.072
Y20C	-0.321 ± 0.12
Y20S	-0.59 ± 0.083
Y20L	-0.171 ± 0.059
Y20A	-0.228 ± 0.068
Y20P	-0.918 ± 0.14
Y20E	-0.516 ± 0.09
Y20T	-0.871 ± 0.12
Y20F	-0.807 ± 0.17
Y20N	-0.68 ± 0.18
Y20D	-1.01 ± 0.17
Y20K	0.072 ± 0.091
Y13C	0.068 ± 0.1
Y13N	0 ± 0.1
Y13I	-0.975 ± 0.24
Y13T	-0.323 ± 0.089
Y13G	-0.252 ± 0.061
Y13F	0.065 ± 0.11
Y13V	-0.897 ± 0.1
Y13M	-0.287 ± 0.1
Y13L	-0.15 ± 0.072

Variant	abundance fitness
Y13D	-0.345 ± 0.15
Y13K	-0.028 ± 0.093
Y13A	-0.02 ± 0.069
Y13W	-0.06 ± 0.075
Y13R	0.069 ± 0.055
Y13Q	-0.292 ± 0.092
Y13P	-0.902 ± 0.13
H28C	-0.098 ± 0.077
H28D	-0.144 ± 0.11
H28T	-0.065 ± 0.075
H28W	-0.871 ± 0.095
H28N	-0.006 ± 0.094
H28F	-0.619 ± 0.14
H28G	0.034 ± 0.055
H28R	-0.183 ± 0.054
H28M	-0.118 ± 0.076
H28A	0.024 ± 0.075
H28Y	-0.401 ± 0.11
H28L	-0.087 ± 0.062
H28E	-0.159 ± 0.082
H28S	-0.042 ± 0.066
H28P	-0.001 ± 0.1
H28I	-0.508 ± 0.15
H28Q	-0.088 ± 0.13

Variant	abundance fitness
V24K	-0.849 ± 0.17
V24E	-1.04 ± 0.19
V24M	-0.726 ± 0.1
V24C	-0.949 ± 0.13
V24Q	-0.986 ± 0.12
V24I	-0.027 ± 0.13
V24D	-1.03 ± 0.28
V24A	-0.939 ± 0.13
V24N	-0.825 ± 0.15
V24S	-0.751 ± 0.075
V24F	-0.22 ± 0.096
V24W	-0.811 ± 0.093
V24P	-0.906 ± 0.11
V24R	-0.773 ± 0.061
V24T	-0.863 ± 0.11
V24H	-0.847 ± 0.18
V24L	-0.215 ± 0.059
V24G	-0.994 ± 0.094
V24Y	-0.814 ± 0.15
E15R	0.022 ± 0.056
E15F	-0.149 ± 0.1
E15C	-0.21 ± 0.098
E15L	-0.064 ± 0.06
E15Q	-0.111 ± 0.11

Variant	abundance fitness
E15D	-0.336 ± 0.12
E15W	-0.27 ± 0.074
E15H	-0.251 ± 0.11
E15T	-0.139 ± 0.073
E15V	-0.026 ± 0.061
E15I	-0.156 ± 0.11
E15P	-0.185 ± 0.093
E15K	0.081 ± 0.082
E15N	-0.105 ± 0.1
E15G	-0.142 ± 0.062
E15S	-0.114 ± 0.06
E15Y	0.099 ± 0.11
D16I	-1.04 ± 0.26
D16N	-0.417 ± 0.15
D16K	-0.366 ± 0.11
D16V	-0.722 ± 0.099
D16H	-0.116 ± 0.14
D16A	-0.529 ± 0.08
D16T	-0.377 ± 0.1
D16Y	-0.691 ± 0.17
D16P	-0.602 ± 0.12
D16Q	-0.498 ± 0.12
D16G	-0.89 ± 0.077
D16R	-0.308 ± 0.057

Variant	abundance fitness
D16C	-0.961 ± 0.14
D16M	-0.754 ± 0.11
D16F	-0.76 ± 0.25
D16L	-0.588 ± 0.085
L27F	-0.716 ± 0.14
L27D	-0.871 ± 0.14
L27S	-0.749 ± 0.1
L27G	-0.974 ± 0.076
L27Y	-0.911 ± 0.18
L27V	-0.064 ± 0.067
L27T	-0.301 ± 0.12
L27P	-0.973 ± 0.17
L27E	-0.913 ± 0.11
L27W	-0.76 ± 0.1
L27H	-0.675 ± 0.18
L27C	-0.183 ± 0.087
L27A	-0.651 ± 0.1
L27R	-0.872 ± 0.078
L27Q	-1.13 ± 0.2
L27N	-0.879 ± 0.18
L27I	-0.072 ± 0.11
L27M	-0.181 ± 0.11
E23L	-0.225 ± 0.062
E23A	-0.257 ± 0.071

Variant	abundance fitness
E23I	0.143 ± 0.1
E23Q	-0.103 ± 0.11
E23T	-0.004 ± 0.07
E23R	0.032 ± 0.057
E23N	0.059 ± 0.097
E23W	-0.176 ± 0.08
E23F	-0.1 ± 0.11
E23G	-0.596 ± 0.075
E23C	-0.034 ± 0.079
E23M	-0.005 ± 0.1
E23S	0.013 ± 0.059
E23H	0.071 ± 0.088
E23P	-0.838 ± 0.11
F10H	-0.255 ± 0.11
F10W	-0.051 ± 0.079
F10V	-0.128 ± 0.064
F10T	-0.383 ± 0.087
F10I	-0.076 ± 0.1
F10M	0.068 ± 0.085
F10K	-0.32 ± 0.11
F10S	-0.234 ± 0.064
F10P	-0.923 ± 0.15
F10L	0.084 ± 0.064
F10A	-0.178 ± 0.072

Variant	abundance fitness
F10G	-0.84 ± 0.077
F10C	-0.2 ± 0.092
F10Y	0.026 ± 0.088
F10Q	-0.006 ± 0.099
F10E	0.023 ± 0.081
F10D	-0.267 ± 0.1
R21A	-0.289 ± 0.067
R21D	-0.582 ± 0.14
R21V	-0.508 ± 0.078
R21S	-0.622 ± 0.069
R21T	-0.542 ± 0.094
R21P	-0.206 ± 0.077
R21G	-0.978 ± 0.098
R21M	-0.506 ± 0.096
R21E	-0.301 ± 0.099
R21N	-0.678 ± 0.15
R21Q	-0.13 ± 0.1
R21Y	-0.662 ± 0.11
R21I	-0.434 ± 0.13
R21H	-0.143 ± 0.089
R21L	-0.177 ± 0.058
R21C	-0.826 ± 0.11
R21W	-0.766 ± 0.093
F19Q	-0.599 ± 0.12

Variant	abundance fitness
F19V	-0.756 ± 0.082
F19Y	-0.123 ± 0.14
F19G	-0.925 ± 0.077
F19S	-0.703 ± 0.086
F19A	-0.831 ± 0.087
F19T	-0.747 ± 0.12
F19I	-0.649 ± 0.27
F19E	-0.706 ± 0.099
F19D	-0.881 ± 0.15
F19W	-0.008 ± 0.081
F19L	-0.472 ± 0.08
F19K	-0.85 ± 0.16
F19H	-0.457 ± 0.17
F19P	-0.81 ± 0.13
F19C	-1.02 ± 0.14
F19M	-0.386 ± 0.13
C9Y	-0.802 ± 0.099
C9S	-0.942 ± 0.1
C9F	-0.915 ± 0.16
C9R	-0.819 ± 0.083
C9A	-0.765 ± 0.1
C9P	-0.905 ± 0.12
C9T	-1.04 ± 0.16
C9N	-0.82 ± 0.27

Variant	abundance fitness
C9Q	-0.93 ± 0.12
C9I	-0.975 ± 0.3
C9G	-0.869 ± 0.076
C9E	-0.887 ± 0.14
C9D	-1.03 ± 0.23
C9L	-0.913 ± 0.086
C9H	-0.817 ± 0.26
C9W	-0.773 ± 0.095
C9K	-0.915 ± 0.17
K18W	-0.736 ± 0.11
K18P	-0.949 ± 0.16
K18I	-0.273 ± 0.12
K18Q	-0.144 ± 0.086
K18T	-0.087 ± 0.087
K18V	-0.255 ± 0.069
K18H	-0.179 ± 0.12
K18N	-0.228 ± 0.11
K18F	-0.917 ± 0.26
K18R	-0.095 ± 0.056
K18E	-0.179 ± 0.087
K18L	-0.254 ± 0.075
K18C	-0.188 ± 0.08
K18M	-0.033 ± 0.084
K18S	-0.254 ± 0.067

Variant	abundance fitness
K18A	-0.126 ± 0.089
A22Q	-0.955 ± 0.15
A22G	-0.351 ± 0.06
A22T	-0.865 ± 0.14
A22D	-0.93 ± 0.13
A22S	-0.637 ± 0.087
A22E	-1.04 ± 0.13
A22N	-0.986 ± 0.3
A22F	-0.977 ± 0.25
A22I	-0.923 ± 0.36
A22C	-0.488 ± 0.12
A22P	-0.976 ± 0.14
A22L	-0.857 ± 0.093
A22V	-0.845 ± 0.069
A22R	-0.756 ± 0.076
A22Y	-0.844 ± 0.27
A22W	-0.95 ± 0.12
A22M	-0.908 ± 0.16
A22H	-0.936 ± 0.21
A22K	-1.03 ± 0.14
L12F	-0.493 ± 0.15
L12R	-0.124 ± 0.059
L12Y	-0.754 ± 0.2
L12G	-0.782 ± 0.086

Variant	abundance fitness
L12C	-0.236 ± 0.13
L12A	-0.525 ± 0.083
L12K	0.01 ± 0.12
L12D	-0.891 ± 0.19
L12N	-0.486 ± 0.17
L12V	-0.368 ± 0.071
L12S	-0.725 ± 0.088
L12T	-0.861 ± 0.12
L12Q	-0.252 ± 0.09
L12P	-0.394 ± 0.075
L12I	-0.272 ± 0.14
L12W	-0.384 ± 0.083
L12H	-0.552 ± 0.13
E8Q	-0.055 ± 0.088
E8P	-0.032 ± 0.088
E8T	-0.083 ± 0.093
E8Y	-0.079 ± 0.15
E8M	-0.046 ± 0.12
E8W	-0.178 ± 0.077
E8V	-0.122 ± 0.066
E8N	-0.077 ± 0.11
E8L	-0.016 ± 0.075
